Reference: the RNAGym collection of RNA variant scans (doi:10.7554/elife.80360)

B1: Hairpin Ribozyme (parent)
chain: GUCCUCUUUCACGUGCGCGUGAAAGAGAGAAGUGAACCAGAGAAACACACGUUGUGGUAUAUUACCUGGUA

Variants of: B1
Assay: self-cleavage, relative activity (ratio to wild type); higher = more cleavage; co-transcriptional

Row | Variant | self-cleavage
1 | GUCCUCUUUCACGUGCGCGUGAAAGAGAGAAGUGAACCAGAGAAAAACACGUUGUGGUAUAUUAUCUGGUA | 0.259
2 | GUCCUCUUUCACGUGCGCGUGAAAGAGAGAAGUGAACCAGAGAAAAACACGGUGUGGUAUAUUACCUGGUA | 0.119
3 | GUCCUCUUUCACGUGCGCGUGAAAGAGAGAAGUGAACCAGAGAAAAACACGCUGUGGUAUAUUACCUGGUA | 0.271
4 | GUCCUCUUUCACGUGCGCGUGAAAGAGAGAAGUGAACCAGAGAAAAACAGGUUGUGGUAUAUUACCUGGUA | 0.159
5 | GUCCUCUUUCACGUGCGCGUGAAAGAGAGAAGUGAACCAGAGAAAAACAAGUUGUGGUAUAUUACCUGGUA | 0.117
6 | GUCCUCUUUCACGUGCGCGUGAAAGAGAGAAGUGAACCAGAGAAAAAGACGUUGUGGUAUAUUACCUGGUA | 0.211
7 | GUCCUCUUUCACGUGCGCGUGAAAGAGAGAAGUGAACCAGAGAAAAAUACGUUGUGGUAUAUUACCUGGUA | 0.138
8 | GUCCUCUUUCACGUGCGCGUGAAAGAGAGAAGUGAACCAGAGAAAAAAACGUUGUGGUAUAUUACCUGGUA | 0.127
9 | GUCCUCUUUCACGUGCGCGUGAAAGAGAGAAGUGAACCAGAGAAAAACACGUUGUGGUAUAUUACCCGGUA | 0.11
10 | GUCCUCUUUCACGUGCGCGUGAAAGAGAGAAGUGAACCAGAGAAAAACACGUUGUGGUAUAUUACCGGGUA | 0.142
11 | GUCCUCUUUCACGUGCGCGUGAAAGAGAGAAGUGAACCAGAGAAAAACACGUUGUGGUAUGUUACCUGGUA | 0.0812
12 | GUCCUCUUUCACGUGCGCGUGAAAGAGAGAAGUGAACCAGAGAAAAACACGUUGUGGCAUAUUACCUGGUA | 0.206
13 | GUCCUCUUUCACGUGCGCGUGAAAGAGAGAAGUGAACCAGAGAAAGACUCGUUGUGGUAUAUUACCUGGUA | 0.0713
14 | GUCCUCUUUCACGUGCGCGUGAAAGAGAGAAGUGAACCAGAGAAAAACACGUUGUGGUAUAUUACCUGGUU | 0.161
15 | GUCCUCUUUCACGUGCGCGUGAAAGAGAGAAGUGAACCAGAGAAAGACACGUUGUGGUCUAUUACCUGGUA | 0.219
16 | GUCCUCUUUCACGUGCGCGUGAAAGAGAGAAGUGAACCAGAGAAAGACACGUUGUGGUGUAUUACCUGGUA | 0.185
17 | GUCCUCUUUCACGUGCGCGUGAAAGAGAGAAGUGAACCAGAGAAAGUCACGUUGUGGUAUAUUACCUGGUA | 0.136
18 | GUCCUCUUUCACGUGCGCGUGAAAGAGAGAAGUGAACCAGAGAAAAACACGUUGUGGUAUAUUACAUGGUA | 0.0901
19 | GUCCUCUUUCACGUGCGCGUGAAAGAGAGAAGUGAACCAGAGAAAAACACGUUGUGGUAUAUUACGUGGUA | 0.14

Row | Variant | self-cleavage
20 | GUCCUCUUUCACGUGCGCGUGAAAGAGAGAAGUGAACCAGAGAAAAACACGUUGUGGUAUAUUACUUGGUA | 0.15
21 | GUCCUCUUUCACGUGCGCGUGAAAGAGAGAAGUGAACCAGAGAAAAACACGUUGUCGUAUAUUACCUGGUA | 0.122
22 | GUCCUCUUUCACGUGCGCGUGAAAGAGAGAAGUGAACCAGAGAAAAACACGUUGUGGUAUAUUACCUGGGA | 0.0934
23 | GUCCUCUUUCACGUGCGCGUGAAAGAGAGAAGUGAACCAGAGAAAAACACGUUGUGGUAUAUUACCUGGCA | 0.026
24 | GUCCUCUUUCACGUGCGCGUGAAAGAGAGAAGUGAACCAGAGAAAAACACGUUGUGGUAUAUUACCUGGAA | 0.205
25 | GUCCUCUUUCACGUGCGCGUGAAAGAGAGAAGUGAACCAGAGAAAAACACGUUGAGGUAUAUUACCUGGUA | 0.204
26 | GUCCUCUUUCACGUGCGCGUGAAAGAGAGAAGUGAACCAGAGAAAAACACGUUGUGAUAUAUUACCUGGUA | 0.177
27 | GUCCUCUUUCACGUGCGCGUGAAAGAGAGAAGUGAACCAGAGAAAAACACGUUGUGGUAUAUGACCUGGUA | 0.092
28 | GUCCUCUUUCACGUGCGCGUGAAAGAGAGAAGUGAACCAGAGAAAAACACGUUGUGGUAGAUUACCUGGUA | 0.102
29 | GUCCUCUUUCACGUGCGCGUGAAAGAGAGAAGUGAACCAGAGAAUCACACGUUGUGGUAUAUUACCAGGUA | 0.0841
30 | GUCCUCUUUCACGUGCGCGUGAAAGAGAGAAGUGAACCAGAGAAAAACACGUAGUGGUAUAUUACCUGGUA | 0.139
31 | GUCCUCUUUCACGUGCGCGUGAAAGAGAGAAGUGAACCAGAGAAAAACACGUGGUGGUAUAUUACCUGGUA | 0.159
32 | GUCCUCUUUCACGUGCGCGUGAAAGAGAGAAGUGAACCAGAGAAAAACACGUCGUGGUAUAUUACCUGGUA | 0.148
33 | GUCCUCUUUCACGUGCGCGUGAAAGAGAGAAGUGAACCAGAGAAAAACACGUUGUGGUAUACUACCUGGUA | 0.193
34 | GUCCUCUUUCACGUGCGCGUGAAAGAGAGAAGUGAACCAGAGAAAAACGCGUUGUGGUAUAUUACCUGGUA | 0.0498
35 | GUCCUCUUUCACGUGCGCGUGAAAGAGAGAAGUGAACCAGAGAAAAACUCGUUGUGGUAUAUUACCUGGUA | 0.149
36 | GUCCUCUUUCACGUGCGCGUGAAAGAGAGAAGUGAACCAGAGAAAAACACGUUGUGGUAUAUUACCUUGUA | 0.137
37 | GUCCUCUUUCACGUGCGCGUGAAAGAGAGAAGUGAACCAGAGAAAAACACGUUGUGGUAUAUUACCUGUUA | 0.171
38 | GUCCUCUUUCACGUGCGCGUGAAAGAGAGAAGUGAACCAGAGAAAAACACGUUGUGGUAUAUUACCUGCUA | 0.0874
